Earlier results in PMC4329993.

Target: GLP-1 receptor (Homo sapiens) (UniProt P43220)
Sequence of UniProt P43220 (P43220 24-463): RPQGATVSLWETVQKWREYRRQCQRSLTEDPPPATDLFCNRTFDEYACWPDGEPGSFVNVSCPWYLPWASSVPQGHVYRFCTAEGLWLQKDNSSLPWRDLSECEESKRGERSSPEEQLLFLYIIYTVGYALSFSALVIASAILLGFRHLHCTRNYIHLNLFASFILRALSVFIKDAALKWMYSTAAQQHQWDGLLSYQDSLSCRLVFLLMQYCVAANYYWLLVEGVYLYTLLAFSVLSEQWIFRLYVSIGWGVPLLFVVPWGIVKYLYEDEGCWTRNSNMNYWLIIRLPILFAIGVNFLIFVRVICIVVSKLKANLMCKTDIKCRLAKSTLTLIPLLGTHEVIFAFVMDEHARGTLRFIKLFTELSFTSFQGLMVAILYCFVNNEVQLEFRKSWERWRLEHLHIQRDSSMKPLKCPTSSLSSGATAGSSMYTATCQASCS

Sequence of GLP-1 (P01275 98-127): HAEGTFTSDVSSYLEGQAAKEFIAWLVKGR

For GLP-1 (from UniProt P01275), the Kd is listed as 300 pM.
